For assay [1], the target named is T1, mouse-derived WARS1 recombinant protein (mouse, UniProt P32921 1-481, limits assumed).
T1 construct: Recombinant, His-tagged (detected with anti-His tag antibody); construct not described; In the western blot also secreted WARS1 from J774A.1 supernatant and mouse serum; also called mouse WARS1
T1 sequence (looked up): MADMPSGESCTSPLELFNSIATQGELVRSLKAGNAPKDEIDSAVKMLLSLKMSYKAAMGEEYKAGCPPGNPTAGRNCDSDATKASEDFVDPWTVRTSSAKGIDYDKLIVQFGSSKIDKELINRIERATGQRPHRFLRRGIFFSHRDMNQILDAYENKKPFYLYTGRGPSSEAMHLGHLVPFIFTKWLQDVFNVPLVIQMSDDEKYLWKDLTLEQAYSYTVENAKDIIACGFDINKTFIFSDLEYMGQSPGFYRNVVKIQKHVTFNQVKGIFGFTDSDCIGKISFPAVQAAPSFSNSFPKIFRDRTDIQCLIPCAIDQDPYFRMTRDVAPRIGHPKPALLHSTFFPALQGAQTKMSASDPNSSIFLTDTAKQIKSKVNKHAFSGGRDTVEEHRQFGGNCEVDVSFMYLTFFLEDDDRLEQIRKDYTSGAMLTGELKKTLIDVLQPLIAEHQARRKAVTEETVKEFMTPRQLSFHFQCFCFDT
Briefly: direct ELISA. The procedure: (§1) Specifically, for direct ELISA, a 96-well plate (Maxisorp, Thermo Fisher) was coated with WARS1 having a 1 μg/ml concentration of a recombinant protein derived from human, marmoset (NHP), mouse, rat, and pig, and then blocked with PBS containing 1% BSA at room temperature for 1 hour. The GKB101 antibody or a variant antibody thereof was diluted in a concentration-dependent manner, added to each coated well, reacted at room temperature for 1 hour, and then washed four times with PBST (PBS+Tween20). Each well was treated and reacted for 1 hour with an antibody (anti-Human IgG, cell signaling) to which HRP is attached, and then washed with PBST. Lastly, after developing with a TMB substrate (BD), its absorbance was measured at 490 nm (NIVO) (FIGS. 4a to 5).
For orientation: In an ELISA, binding on a coated surface is turned into a signal by an enzyme label.

The target of assay [2] is T2, human WARS1 recombinant protein (human, UniProt P23381 2-471, limits assumed).
T2 construct: Recombinant protein, detected with an anti-His tag antibody; In the western blot also secreted WARS1 from THP-1 supernatant and human serum; also called human-derived WARS1 recombinant protein
T2 sequence: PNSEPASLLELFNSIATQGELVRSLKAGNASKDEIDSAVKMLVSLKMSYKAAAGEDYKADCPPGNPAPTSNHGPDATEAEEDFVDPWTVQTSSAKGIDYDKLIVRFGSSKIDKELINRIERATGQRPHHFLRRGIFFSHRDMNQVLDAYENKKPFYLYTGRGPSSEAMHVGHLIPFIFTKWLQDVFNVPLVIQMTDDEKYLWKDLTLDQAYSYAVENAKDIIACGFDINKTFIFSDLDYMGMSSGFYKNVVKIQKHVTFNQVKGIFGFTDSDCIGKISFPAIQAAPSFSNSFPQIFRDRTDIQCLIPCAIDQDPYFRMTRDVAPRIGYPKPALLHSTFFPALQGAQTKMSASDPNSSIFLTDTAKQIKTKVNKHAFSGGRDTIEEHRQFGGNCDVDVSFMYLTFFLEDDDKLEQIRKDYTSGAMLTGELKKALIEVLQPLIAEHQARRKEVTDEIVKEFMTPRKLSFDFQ
Briefly: direct ELISA. Here is the method:
as §1

Assay [3] addresses T3, rat-derived WARS1 recombinant protein (rat, UniProt Q6P7B0 1-481, limits assumed).
T3 construct: Recombinant, His-tagged (detected with anti-His tag antibody); construct not described; also called rat WARS1
T3 sequence (looked up): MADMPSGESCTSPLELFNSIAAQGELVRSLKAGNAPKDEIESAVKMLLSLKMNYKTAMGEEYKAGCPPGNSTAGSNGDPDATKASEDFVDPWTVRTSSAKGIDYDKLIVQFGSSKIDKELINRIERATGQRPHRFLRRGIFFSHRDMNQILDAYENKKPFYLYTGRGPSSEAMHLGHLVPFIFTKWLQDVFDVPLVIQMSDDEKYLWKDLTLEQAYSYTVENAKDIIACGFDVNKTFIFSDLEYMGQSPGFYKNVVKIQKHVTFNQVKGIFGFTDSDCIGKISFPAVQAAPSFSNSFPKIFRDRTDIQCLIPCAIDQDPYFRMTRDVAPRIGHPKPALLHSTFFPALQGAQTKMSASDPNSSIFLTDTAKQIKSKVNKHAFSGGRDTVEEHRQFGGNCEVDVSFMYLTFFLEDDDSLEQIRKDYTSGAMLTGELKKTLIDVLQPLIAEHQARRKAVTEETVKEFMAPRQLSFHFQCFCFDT
Kind of assay: direct ELISA. The procedure:
as §1

For assay [4], the target named is marmoset (NHP)-derived WARS1 recombinant protein (marmoset (NHP)) (UniProt U3CR73). Briefly: direct ELISA.
The target in assay [5] is T2, human WARS1 recombinant protein. Kind of assay: cell-based or functional assay.

Results on three molecules are retold here after US20250289905A1 (MIRIMGENE, published 2025).

Changes are numbered by the printed parent chain.

B1: SHL/ILN (antibody, V domains shown)
VH: EVQLLESGGGLVQPGGSLRLSCAASGFTFSSYDMSWVRQAPGKGLEWVSAISSGGSSIYYADSVKGRFTISRDNSKNTLYLQMNSLRAEDTAVYYCARDVAWDMLGDFDYWGQGTLVTVSS
VL: QSVLTQPPSASGTPGQRVTISCTGSSSNIGSNYVYWYQQLPGTAPKLLIYANILRPSGVPDRFSGSKSGTSASLAISGLRSEDEADYYCGAWDDSNSAYVFGGGTKLTVLT
notes: L-CDR2 and L-CDR3 variant of GKB101; also called SHL/ILN antibody
Turning to B1, the Kd (in general, the equilibrium constant for the complex coming apart) in assay [1] was approximately 1 pM; in assay [2], approximately 1 pM; in assay [3], approximately 1 pM; in assay [4], 1 pM.

B2: SHL/LLN (antibody, V domains shown)
VH: B1 VH
VL: B1 VL with I53L
notes: L-CDR2 and L-CDR3 variant of GKB101; also called SHL/LLN antibody
Consider B2, for which the Kd in assay [1] is approximately 1 pM; in assay [2] it was approximately 1 pM; in assay [3], approximately 1 pM; in assay [4] it was 1 pM. The “secretion of TNF-α in mouse macrophage J774A.1 cells” value in assay [5] is not below 40%.

B3: SHL/QLN (antibody, V domains shown)
VH: B1 VH
VL: B1 VL with I53Q
notes: L-CDR2 and L-CDR3 variant of GKB101; also called SHL/QLN antibody
In the case of B3, the Kd is approximately 1 pM in assay [1], approximately 1 pM in assay [2], approximately 1 pM in assay [3] and 1 pM in assay [4]. For the same molecule, in assay [5], the “secretion of TNF-α in mouse macrophage J774A.1 cells” value is not below 40%.
